Measured values: the supplement of paper PMC9233669
This sample holds only a part of the variants without activity.

What was measured:
biotinyl-Trp-oxazolone = experiment: self-aminoacylation, catalytic enhancement (BWO) (fold over background); higher = more active; k-Seq, kA / k0A0; sequences stand for … in GGGAAUGGAUCCACAUCUACGAAUUC…UUCACUGCAGACUUGACGAAGCUG
In short: (§1)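 Mutagenized RNA pools (0.43 μM; 21-nt variable region) were treated with 2–1250 μM of each biotinyl-aminoacyl-oxazolone. Conditions were 50 μL HEPES/NaCl/KCl/MgCl2/CaCl2 buffer, 5% acetonitrile, pH 6.9–7.0, room temperature, 90 minutes. Catalytic enhancement, the median kA relative to the uncatalyzed rate, was derived from streptavidin capture, qPCR and Illumina sequencing.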

biotinyl-Ile-oxazolone = experiment: self-aminoacylation, catalytic enhancement (BIO) (fold over background); higher = more active; k-Seq, kA / k0A0; sequences stand for … in GGGAAUGGAUCCACAUCUACGAAUUC…UUCACUGCAGACUUGACGAAGCUG
In short: as §1

biotinyl-Leu-oxazolone = experiment: self-aminoacylation, catalytic enhancement (BLO) (fold over background); higher = more active; k-Seq, kA / k0A0; sequences stand for … in GGGAAUGGAUCCACAUCUACGAAUUC…UUCACUGCAGACUUGACGAAGCUG
In short: as §1

biotinyl-Val-oxazolone = experiment: self-aminoacylation, catalytic enhancement (BVO) (fold over background); higher = more active; k-Seq, kA / k0A0; sequences stand for … in GGGAAUGGAUCCACAUCUACGAAUUC…UUCACUGCAGACUUGACGAAGCUG
In short: as §1

biotinyl-Met-oxazolone = experiment: self-aminoacylation, catalytic enhancement (BMO) (fold over background); higher = more active; k-Seq, kA / k0A0; sequences stand for … in GGGAAUGGAUCCACAUCUACGAAUUC…UUCACUGCAGACUUGACGAAGCUG
In short: as §1

biotinyl-Phe-oxazolone = experiment: self-aminoacylation, catalytic enhancement (BFO) (fold over background); higher = more active; k-Seq, kA / k0A0; sequences stand for … in GGGAAUGGAUCCACAUCUACGAAUUC…UUCACUGCAGACUUGACGAAGCUG
In short: as §1

Sequence	self-aminoacylation (biotinyl-Trp-oxazolone)	self-aminoacylation (biotinyl-Ile-oxazolone)	self-aminoacylation (biotinyl-Leu-oxazolone)	self-aminoacylation (biotinyl-Val-oxazolone)	self-aminoacylation (biotinyl-Met-oxazolone)	self-aminoacylation (biotinyl-Phe-oxazolone)
AUUCCCCUGGUCACCGAGUGA [Fam2.1 aminoacylation ribozyme variant]	12.6	5.93	11.1	5.07	9.9	73.1
AUUCCCCUGGUCAUAGAGUGA [Fam2.1 aminoacylation ribozyme variant]	13.1	5.4	10.1	5.89	10	70.9
AUUCCCCUGGUCAUCGAGCGA [Fam2.1 aminoacylation ribozyme variant]	1.53	2.14	2.75	2.17	2.63	8.04
AUUCCCCUGGUCAUCGAGUUA [Fam2.1 aminoacylation ribozyme variant]	1.08	1.33	1.19	1.36	1.09	1.25
AUUCCCCUGGUCAUCUAGUGA [Fam2.1 aminoacylation ribozyme variant]	13	5.92	11.4	6.23	11.9	85.5
AUUCCCCUGGUCAUGGAGUGA [Fam2.1 aminoacylation ribozyme variant]	4.27	2.92	3.99	3.12	3.85	16.3
AUUCCCCUUGGUCAUCGGGUG [Fam2.2 aminoacylation ribozyme variant]	18.9	13.4	27.4	13.7	20.4	165
AUUCCCGUGGUCAUCGAGUGA [Fam2.1 aminoacylation ribozyme variant]	11.3	5.17	9.05	5.81	8.45	63.3
AUUCCUCUAGGUCAUCGGGUG [Fam2.2 aminoacylation ribozyme variant]	16.1	10.4	23.7	10.5	16.6	154
AUUCCUCUGGUCAUCGAGUGA [Fam2.1 aminoacylation ribozyme variant]	7.73	3.75	6.46	4.02	6.73	31.6
AUUCGCCUAGAUCAUCGGGUG [Fam2.2 aminoacylation ribozyme variant]	3.12	2.08	4.04	2.27	2.69	19.1
AUUCGCCUAGGUCAUCGGAUG [Fam2.2 aminoacylation ribozyme variant]	0.704	0.941	0.903	1.07	0.94	0.493
AUUCGCCUAGGUCAUCGGGAG [Fam2.2 aminoacylation ribozyme variant]	0.98	1.29	1.87	1.54	1.51	2.55
AUUCUCCAAGGUCAUCGGGUG [Fam2.2 aminoacylation ribozyme variant]	10.7	6.8	15.6	7.99	11.8	102
AUUCUCCUAGGUAAUCGGGUG [Fam2.2 aminoacylation ribozyme variant]	4.29	2.55	6.03	2.45	4.1	33.1
AUUCUCCUAGGUCACCGGGUG [Fam2.2 aminoacylation ribozyme variant]	7.7	5.47	10.2	5.85	7.25	39.8
AUUCUCCUAGGUCAUCAGGUG [Fam2.2 aminoacylation ribozyme variant]	2.38	2.12	2.71	2.3	2.62	6.58
AUUCUCCUAGGUCAUCGCGUG [Fam2.2 aminoacylation ribozyme variant]	20.6	11.4	27.3	12.2	20.9	170
AUUCUCCUAGGUCAUCGGAUG [Fam2.2 aminoacylation ribozyme variant]	0.795	1.03	0.907	1.1	0.975	0.611
AUUCUCCUAGGUCCUCGGGUG [Fam2.2 aminoacylation ribozyme variant]	7.62	4.72	10.5	4.54	6.44	54.1
AUUCUCCUAGGUCGUCGGGUG [Fam2.2 aminoacylation ribozyme variant]	2.28	2.55	2.85	2.38	2.72	12.2
AUUGACAUAGGUCAUCGGGUG [Fam2.2 aminoacylation ribozyme variant]	8.04	5.14	8.84	4.42	7.3	48.4

Sequence	self-aminoacylation (biotinyl-Trp-oxazolone)	self-aminoacylation (biotinyl-Ile-oxazolone)	self-aminoacylation (biotinyl-Leu-oxazolone)	self-aminoacylation (biotinyl-Val-oxazolone)	self-aminoacylation (biotinyl-Met-oxazolone)	self-aminoacylation (biotinyl-Phe-oxazolone)
AUUGACCUAGGUCAACGGGUG [Fam2.2 aminoacylation ribozyme variant]	2.72	2.46	2.43	2.31	2.6	8.47
AUUGACCUAGGUCAUCGGGCG [Fam2.2 aminoacylation ribozyme variant]	4.79	3.78	6	4.14	5.01	15
AUUGACCUAGGUCAUCGGUUG [Fam2.2 aminoacylation ribozyme variant]	1.65	1.34	1.41	1.29	1.08	3.99
AUUGACCUAGGUCAUGGGGUG [Fam2.2 aminoacylation ribozyme variant]	3.74	3.08	3.32	2.9	2.92	17
AUUGACCUAGGUCGUCGGGUG [Fam2.2 aminoacylation ribozyme variant]	2.2	1.78	1.6	1.81	1.44	10.2
AUUGACCUAGGUUAUCGGGUG [Fam2.2 aminoacylation ribozyme variant]	6.6	4.71	5.36	4.7	4.96	29.1
AUUGACCUCGGUCAUCGGGUG [Fam2.2 aminoacylation ribozyme variant]	3.78	3.05	4.55	3.69	4.12	20.3
AUUGCCAUGGUCAUCGAGUGA [Fam2.1 aminoacylation ribozyme variant]	11.6	4.75	10.1	4.81	9.29	53.5
AUUGCCCGGGUCAUCGAGUGA [Fam2.1 aminoacylation ribozyme variant]	6.49	3.01	7.35	3.8	6.39	45.4
AUUGCCCUAGUCAUCGAGUGA [Fam2.1 aminoacylation ribozyme variant]	6.87	2.73	4.97	3.21	5.83	23.6
AUUGCCCUCGUCAUCGAGUGA [Fam2.1 aminoacylation ribozyme variant]	3.9	2.21	3.58	2.08	3.34	17.4
AUUGCCCUGGUCACCGAGUGA [Fam2.1 aminoacylation ribozyme variant]	9.72	3.77	10.8	4.68	9.41	70
AUUGCCCUGGUCAUAGAGUGA [Fam2.1 aminoacylation ribozyme variant]	10.9	4.05	8.58	4.65	9.01	57.9
AUUGCCCUGGUCAUCCAGUGA [Fam2.1 aminoacylation ribozyme variant]	7.66	3.7	7.38	4.02	6.42	44.4
AUUGCCCUGGUCAUCGAGUGA [Fam2.1 aminoacylation ribozyme variant]	60	20.6	51.2	23.7	53.1	367
AUUGCCCUGGUCAUCGAGUUA [Fam2.1 aminoacylation ribozyme variant]	4.44	2.31	5.24	2.64	4.84	8.37
AUUGCCCUGGUCAUCUAGUGA [Fam2.1 aminoacylation ribozyme variant]	10.3	3.81	8.79	4.24	8.83	70.6
AUUGCCCUGGUCAUUGAGUGA [Fam2.1 aminoacylation ribozyme variant]	9.51	3.72	7.3	4.2	8.44	64.3
AUUGCCCUGGUUAUCGAGUGA [Fam2.1 aminoacylation ribozyme variant]	10.7	4.09	9.13	4.17	8.87	58.7
AUUGCCUUGGUCAUCGAGUGA [Fam2.1 aminoacylation ribozyme variant]	8.73	4.46	8.79	4.83	8.02	48.9
AUUGCUCUGGUCAUCGAGUGA [Fam2.1 aminoacylation ribozyme variant]	6.59	3.33	5.71	3.3	6.02	6.13
